B1: chimeric nanobody with CDR2 of GFP-nanobody replaced with that of CD4-nanobody (VHH)
VHH: QVQLVESGGALVQPGGSLRLSCAASGFPVNRYSMRWYRQAPGKEREWVAAVRWSSTGIYYTQYADSVKGRFTISRDDARNTVYLQMNSLKPEDTAVYYCNVNVGFEYWGQGTQVTVSS
notes: everything before CDR2 (scaffold, CDR1), as in the VHH of m1; CDR2, as in the VHH of m2; everything after CDR2 (scaffold, CDR3), as in the VHH of m1; also called cCD4 CDR2; not shown: long peptide tag containing two FLAG-tags, C-terminal, kept
B2: chimeric nanobody with CDR3 of GFP-nanobody replaced with that of CD4-nanobody (VHH)
VHH: QVQLVESGGALVQPGGSLRLSCAASGFPVNRYSMRWYRQAPGKEREWVAGMSSAGDRSSYEDSVKGRFTISRDDARNTVYLQMNSLKPEDTAVYYCAADTYNSNPARWDGYDFRGQGTQVTVSS
notes: everything before CDR3 (scaffold, CDR1, CDR2), as in the VHH of m1; CDR3, as in the VHH of m2; scaffold after CDR3, as in the VHH of m1; also called cCD4 CDR3; not shown: long peptide tag containing two FLAG-tags, C-terminal, kept
B3: chimeric nanobody in which all CDRs of GFP-nanobody had been replaced with those of CD4-nanobody (VHH)
VHH: QVQLVESGGALVQPGGSLRLSCAASGRTFNVMRWYRQAPGKEREWVAAVRWSSTGIYYTQYADSVKGRFTISRDDARNTVYLQMNSLKPEDTAVYYCAADTYNSNPARWDGYDFRGQGTQVTVSS
notes: scaffold before CDR1, as in the VHH of m1; CDR1, as in the VHH of m2; scaffold between CDR1 and CDR2, as in the VHH of m1; CDR2, as in the VHH of m2; scaffold between CDR2 and CDR3, as in the VHH of m1; CDR3, as in the VHH of m2; scaffold after CDR3, as in the VHH of m1; not shown: long peptide tag containing two FLAG-tags, C-terminal, kept

Columns and labels:
[1] = biological target: T1, Recombinant CD4 (cluster of differentiation 4) (Homo sapiens (species ), UniProt P01730); test: SPR; BIACORE T-200; CD4 amine-coupled on CM5 (9695.5 RU); nanobodies 0.4 μM flowed over, 25 °C, HBS-EP pH 7.4, contact 180 s, 30 μL/min; binding level relative to CD4 N = 1; N = 3; conditions: both partners purified
T1 construct: CD4, recombinant, bought from R&D Systems; No catalogue number is printed; a bought soluble CD4 is probably the extracellular domain, possibly tagged (surmise); source: bought: R&D Systems

[2] = biological target: T2, Recombinant GFP (green fluorescent protein) (UniProt P42212 = GFP); test: SPR; BIACORE T-200; GFP amine-coupled on CM5 (1189.8 RU); nanobodies 0.4 μM flowed over, 25 °C, HBS-EP pH 7.4, contact 180 s, 30 μL/min; binding level relative to GFP N = 1; N = 3; conditions: both partners purified
T2 construct: green fluorescent protein, recombinant, bought from ProSpec; No catalogue number is printed; source: bought: ProSpec

Row | Binder | relative binding response (CD4N to CD4 = 1) [1] | binding result [2]
1 | B1 | 0.091 | 
2 | B2 | 0.1 | no binding (tested: 0.4 μM)
3 | B3 | 0.096 | 
